Entries after “also recorded” stand apart in the source; their conditions may differ.
Columns and labels:
Assay type in all cases: cell-based
[1] = tested on: U937 cells; assay: Chemotaxis of U937 cells; details: for migration (chemotaxis) of U937 cells: C19, C27, RANTES: U937 cells stimulated by 30 ng/ml IFN-γ
Protocol: The chemotaxis assay was performed using a 48-well microchemotaxis chamber (Neutroprobe, Cabin John, Md., U.S.A.). U937 cells were stimulated by 30 ng/ml IFN-γ for 4 days because IFN-γ could increase the expression of chemokine receptors CCR1, CCR3, and CCR5 in U937 cells. Then part cells were incubated with mouse anti CCR5 100 μg/ml, and/or rat anti CCR3 10 μg/ml for 30 minutes at 37° C., and corresponding mouse IgG and rat IgG as controls. Chemoattractants RANTES, C19 and C27 were diluted in HEPES-buffered RPMI 1640 medium supplemented with 0.5% BSA to indicate concentration, and placed in the lower wells (28 μl/well). U937 cells stimulated by IFN-γ were resuspended in the same medium at 1×10^6 cells/ml and added to the upper wells (50 μl/well), which were separated from the lower wells by a polyvinylpyrrolidone-free polycarbonate filter with 5-μm pores pre-coated by 0.001% fibronectin. The chamber was incubated for 2 hours at 37° C. in 5% CO2 and 95% air. Filters were removed from the chamber, washed, fixed, and stained with Three Step Stain Set. Cells that migrated were counted in 5 randomly selected high power fields (400×) per well. The group with no Chemoattractants in the lower wells was used as a control. All samples were assayed twice at least. The chemotactic index (CI) was calculated from the number of cells that migrated to the control. Significant chemotaxis was defined as CI>2.

[2] = target: T1, CCR4 (Homo sapiens, UniProt P51679); assay: Chemotaxis assay (48-well microchemotaxis chamber) of HEK293 cells transfected with CCR4; details: for chemotaxis induced after PTX pretreatment: CCR4-transfected HEK293 cells treated with 100 ng/ml PTX at 37° C. for 30 min; for desensitization of the receptor to subsequent stimulation with TARC, C27 or C19 (chemotaxis): HEK293/CCR4, pretreatment TARC or 2 μg/ml C27 or C19, 37° C., 30 min
T1 construct: The cDNA fragments covering the open reading frames for various chemokine receptors were obtained as follows; expressed in transfected cells; host or cells: HEK293 (transient, electroporation)
T1 sequence (P51679 1-360): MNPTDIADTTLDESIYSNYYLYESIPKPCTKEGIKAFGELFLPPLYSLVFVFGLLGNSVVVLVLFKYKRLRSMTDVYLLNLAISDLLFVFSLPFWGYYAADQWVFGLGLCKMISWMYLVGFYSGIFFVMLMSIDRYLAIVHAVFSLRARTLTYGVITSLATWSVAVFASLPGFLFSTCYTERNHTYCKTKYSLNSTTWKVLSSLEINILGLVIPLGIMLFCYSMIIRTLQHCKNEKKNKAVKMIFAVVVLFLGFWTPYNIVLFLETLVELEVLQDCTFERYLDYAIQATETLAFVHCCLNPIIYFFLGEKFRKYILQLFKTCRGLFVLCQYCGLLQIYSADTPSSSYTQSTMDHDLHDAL
Protocol: (§1) HEK293 cells were grown in RPMI 1640 supplemented with 10% heat-inactivated FBS, penicillin (100 U/ml) and streptomycin (100 μg/ml). Every 4×10^6 HEK293 cells in 400 μl were transiently transfected by electroporation with 15 μg of the expression plasmid at 120 V, 20 ms using an electric pulse generator (Electro Square Porator ECM 830, BTX, San Diego, Calif.), and calcium mobilization assay and chemotaxis assays were performed 48 hours later.
The chemotaxis assay was performed using a 48-well microchemotaxis chamber (Neutroprobe; Cabin John, Md., U.S.A.). Chemoattractants were diluted in HEPES-buffered RPMI 1640 medium supplemented with 0.1% BSA and placed in the lower wells (28 μl/well). HEK293 cells transfected with pcDI-CCR4, -CCR5 were resuspended in the same medium at 2×10^6 cells/ml and added to the upper wells (50 μl/well), which were separated from the lower wells by a polyvinylpyrrolidone-free polycarbonate filter with 8-μm pores. The chamber was incubated for 2 hours at 37° C. in 5% CO2 and 95% air. Filters were removed from the chamber, washed, fixed, and stained with Three Step Stain Set. Cells that migrated were counted in 5 randomly selected high power fields (400×) per well. The chemotactic index (CI) was calculated from the number of cells that migrated to the control. Significant chemotaxis was defined as CI>2. In some experiments, cells were pretreated with TARC, RANTES, purified CKLF-myc protein or secreted CKLF1 peptides for 30 min. at 37° C., or 100 ng/ml PTX (ALEXIS Biochemicals Corporation) for 6 hours at 37° C. prior to subsequent stimulations.

[3] = target: T2, CCR5 (Homo sapiens, UniProt P51681); assay: Calcium flux assay in CCR5-transfected HEK293 cells; details: for calcium flux: CCR5-transfected HEK293 cells, 167 nM C27 or C19, 100 nM RANTES; for desensitization of transfectants to subsequent RANTES treatment: CCR5 transfectants, first 167 nM peptide, then 100 nM RANTES
T2 construct: The cDNA fragments covering the open reading frames for various chemokine receptors were obtained as follows; expressed in transfected cells; host or cells: HEK293 (transient, electroporation)
T2 sequence (P51681 whole entry, the tested form may be a part): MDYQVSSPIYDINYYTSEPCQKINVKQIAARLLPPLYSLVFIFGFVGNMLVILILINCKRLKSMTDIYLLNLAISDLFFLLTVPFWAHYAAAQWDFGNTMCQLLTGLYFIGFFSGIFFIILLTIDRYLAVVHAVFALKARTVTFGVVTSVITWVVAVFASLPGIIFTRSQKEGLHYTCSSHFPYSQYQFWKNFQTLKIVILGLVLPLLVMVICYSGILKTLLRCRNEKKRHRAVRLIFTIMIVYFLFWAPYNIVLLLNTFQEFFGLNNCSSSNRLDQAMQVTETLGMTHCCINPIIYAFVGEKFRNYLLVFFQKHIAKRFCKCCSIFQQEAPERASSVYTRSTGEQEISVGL
Excerpt: (§2) The cDNA fragments covering the open reading frames for various chemokine receptors were obtained as follows. CCR4, CCR5 and CCR6 receptors were cloned from a K562 cell cDNA library by polymerase chain reaction (PCR). The primers were designed using the sequences from the following GenBank™ submissions: CCR4 (NM_005508.2), CCR5 (NM_000579) and CCR6 (AY242126). The fragments were cloned into an expression vector pcDI (modified in our lab from pcDNA3 vector (Invitrogen), in which the part between BgI II-Kpn I was replaced by the fragment of pCl vector (Promega) digested with BgI II-Kpn I) or pEGFP-N1 vector (CLONTECH) for efficient expression in HEK293 cells. The sequences coding receptors in expression plasmids were confirmed by DNA sequencing, which is consistent with the sequence submitted in GenBank™.
as §1
(§3) HEK293 cells transfected with pcDI-CCR4 or pcDI-CCR5 were grown in specialized glass-bottom microwell dishes (MatTek Corporation, U.S.A.) and loaded with 10 μM fluo-3/AM in HEPES-buffered saline at 37° C. for 1 hour in the dark. The cells were rinsed with HEPES-buffered saline and stimulated with 167 nM secreted CKLF1 peptides and 100 nM TARC or RANTES, respectively. Fluorescence was monitored at 488 nm (excitation wavelength) and 530 nm (emission wavelength) every 5 second using a Leica TCS-NT confocal fluorescence microscope with a 40× oil immersion lens (Wetzler, Heidelberg, Germany). The measurement was completed at room temperature and each field of cells was selected at random. Images were collected at 5 second intervals for 405 seconds. The images were analyzed for relative fluorescence using Leica confocal software. The relative fluorescence was determined using Microsoft Excel. All calcium flux assays were performed in the presence of extracellular calcium (in the absence of EDTA or EGTA) in the assay buffers. Therefore, both intracellular calcium release and extracellular calcium influx were analyzed.

[4] = target: T1, CCR4; assay: Calcium flux assay in CCR4-transfected HEK293 cells; details: for calcium flux: CCR4-transfected HEK293 cells, 167 nM C27 or C19, 100 nM TARC; for desensitization of transfectants to subsequent TARC treatment: CCR4 transfectants, first 167 nM peptide, then 100 nM TARC
Excerpt: as §2, §1, §3

| chemotaxis induced after PTX pretreatment [2] | calcium flux [3] | calcium flux [4] | migration (chemotaxis) of transfected cells ([2]; CCR4-transfected HEK293 cells) | Substance | migration (chemotaxis) of U937 cells [1] | desensitization of the receptor to subsequent stimulation with TARC, C27 or C19 (chemotaxis) [2] | desensitization of transfectants to subsequent RANTES treatment [3] | desensitization of transfectants to subsequent TARC treatment [4] | chemotactic activity after neutralization of chemokine receptors ([1]; IFN-γ-stimulated U937 cells, mouse anti CCR5 and/or rat anti CCR3) |
| --- | --- | --- | --- | --- | --- | --- | --- | --- | --- |
| completely abolished by PTX | a strong calcium flux | could induce calcium flux |  | FNPSGPYQKKPVHEKKEVL (listed as Homo sapiens) [C19] | could induce migration | could desensitize the receptor | could desensitize | could desensitize |  |
| completely abolished by PTX | a strong calcium flux | could induce calcium flux | could induce migration | ALIYRKL LFNPSGPYQKKPVHEKKEVL (ALIYRKLLFNPSGPYQKKPVHEKKEVL; listed as Homo sapiens) [C27] | could induce migration | could desensitize the receptor | could desensitize | could desensitize | had no chemotactic activity; also recorded: obviously inhibited |

From US7465453B2, “Polypeptide fragments of CKLF1” (Peking University, priority 2004, dated 2008)
